Consider one substance from patent US20230392126A1, “TISSUE ORGANOIDS” (priority 2016, published 2023).

Series [1] is described as follows: Stability and tolerance of transplanted skin organoids in immunocompetent hosts. In kind it is in vivo, mouse. Particulars: CD1 hosts. An excerpt: For grafting with skin organoids, CD1 (isogenic mouse keratinocyte transplantation) males or Nude (human keratinocyte transplantation) females with the ages of 6-8 weeks were anesthetized. A silicone chamber bottom with the interior diameter of 0.8 cm and the exterior diameter of 1.5 cm was implanted on its shaved dorsal mid-line skin, which was used to hold the skin graft. A chamber cap was installed to seal the chamber right after a piece of graft was implanted. About one week later, the chamber cap was removed to expose the graft to air. A single dose of 0.2 mg α-CD4 (GK1.5) and 0.2 mg α-CD8 (2.43.1) antibodies was administered intraperitoneally for skin grafting.
Optical imaging was performed in the integrated small animal imaging research resource (iSAIRR) at the University of Chicago. Bioluminescence images were acquired on an IVIS Spectrum (Caliper Life Sciences®, Alameda, CA) after animal was injected with luciferin (100 mg/kg). […]
Grafted cells in immunocompetent hosts readily expressed exogenous genes, such as Luciferase and Histone H2B-RFP (FIG. 1B-D), which were transduced to the cells with lentivirus. […] Importantly, the tissue organoid with expression of exogenous gene, such as Luciferase and H2B-RFP, was stable in vivo for more than 5 months in immunocompetent hosts, as determined by intravital bioluminescence imaging and tissue histology. […]

Series [2] has as its system human epidermal keratinocytes. Kind of series: Cell proliferation and differentiation of engineered human epidermal cells in vitro. In kind it is cell-based. On the procedure:
Primary human neonatal epidermal keratinocytes were obtained from Thermo Fischer® (C0015C), and cultured with Epilife® medium (Thermo Fischer, M-EPICF-500) with manufacturer's recommended procedures. Calcium shift was performed to induce differentiation of primary keratinocytes by increasing the calcium concentration in culture media to 1.5 mM.
Propidium iodide (PI) staining followed by flow cytometry were used to determine the effect of cell cycle profiles. Mouse and human epidermal cells were cultured in two 6 cm cell culture dish for 24 hours, respectively. Cells were trypsinized, and 1×10^5 cells from each dish were collected, followed by one PBS wash. […] After staining, the cells were analyzed immediately using flow cytometer BD FACSCanto™ II (BD Biosciences, San Jose, CA) with an excitation wavelength at 488 nm and emission at 585 nm. DNA content and histograms of cell cycle distribution were analyzed using FlowJo™ software, version 10 (FLOWJO LLC, OR).
Western blotting was performed as described previously (Blanpain et al.). […] Visualization and quantification was carried out with the LI-COR Odyssey® scanner and software (LI-COR Biosciences).
Propidium iodide (PI) staining followed by flow cytometry were used to determine the effect of cell cycle profiles. […] DNA content and histograms of cell cycle distribution were analyzed using FlowJo™ software, version 10 (FLOWJO LLC, OR). […]

With GLP1, the “rejection of skin grafts after transplantation” value in series [1] was “No significant rejection of the skin grafts has been observed”. Also, the “effect of expression on cell proliferation / differentiation in vitro” value in series [2] is on record as “did not significantly change cell proliferation”.
